pKd: −log10 of the molar value.
Tests used:
[1] = target: biotinylated IgG from human serum (Rockland Immunochemicals) (human); assay: BLI (Octet), equilibrium titration of soluble analyte on biotinylated hIgG on streptavidin tips
[2] = target: biotinylated IgG from human serum (Rockland Immunochemicals) (human); assay: BLI, kinetic fit values (1:1 model), soluble sample on immobilized hIgG
[3] = target: biotinylated IgG from human serum (Rockland Immunochemicals) (human); assay: BLI, equilibrium KD, soluble sample on immobilized hIgG

Chain of Ab+Inv HC17 (HP6017 with invertase fused to the C-terminus of the heavy chain by an AS(G4S)3 linker) (heavy): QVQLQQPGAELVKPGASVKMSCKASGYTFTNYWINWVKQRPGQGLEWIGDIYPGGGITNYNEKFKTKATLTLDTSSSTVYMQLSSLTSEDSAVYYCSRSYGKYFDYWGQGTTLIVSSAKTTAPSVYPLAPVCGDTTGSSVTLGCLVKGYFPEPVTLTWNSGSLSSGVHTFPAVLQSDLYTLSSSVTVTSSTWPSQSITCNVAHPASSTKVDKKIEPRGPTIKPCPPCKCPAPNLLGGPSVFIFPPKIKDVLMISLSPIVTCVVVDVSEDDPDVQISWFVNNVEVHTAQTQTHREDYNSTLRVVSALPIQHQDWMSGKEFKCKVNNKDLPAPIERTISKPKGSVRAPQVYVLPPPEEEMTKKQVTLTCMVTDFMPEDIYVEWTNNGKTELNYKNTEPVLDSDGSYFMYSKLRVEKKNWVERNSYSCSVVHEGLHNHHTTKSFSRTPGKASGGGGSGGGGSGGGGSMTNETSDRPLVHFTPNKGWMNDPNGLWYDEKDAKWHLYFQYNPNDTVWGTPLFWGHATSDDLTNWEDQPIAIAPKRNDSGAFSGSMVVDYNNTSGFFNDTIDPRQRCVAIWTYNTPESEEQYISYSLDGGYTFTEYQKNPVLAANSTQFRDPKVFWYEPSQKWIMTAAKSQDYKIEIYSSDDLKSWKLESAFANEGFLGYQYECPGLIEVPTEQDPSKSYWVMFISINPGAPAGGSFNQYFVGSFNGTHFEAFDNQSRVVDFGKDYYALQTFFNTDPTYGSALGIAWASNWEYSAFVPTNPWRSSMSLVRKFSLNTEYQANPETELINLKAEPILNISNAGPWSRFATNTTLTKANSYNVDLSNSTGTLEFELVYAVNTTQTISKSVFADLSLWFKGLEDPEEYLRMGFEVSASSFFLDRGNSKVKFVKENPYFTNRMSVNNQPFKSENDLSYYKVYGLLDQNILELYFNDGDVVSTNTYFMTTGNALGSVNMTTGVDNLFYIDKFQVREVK
Chain of Ab+Inv HC17 (HP6017 with invertase fused to the C-terminus of the heavy chain by an AS(G4S)3 linker) (light): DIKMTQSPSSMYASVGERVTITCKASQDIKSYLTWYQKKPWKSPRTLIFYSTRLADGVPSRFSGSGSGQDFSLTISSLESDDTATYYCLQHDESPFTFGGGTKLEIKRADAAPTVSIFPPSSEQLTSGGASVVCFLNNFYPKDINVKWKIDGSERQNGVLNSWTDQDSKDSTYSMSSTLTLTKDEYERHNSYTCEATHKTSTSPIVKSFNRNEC
Chain of Ab+Inv HC27 (HP6017 with invertase fused to the C-terminus of the heavy chain by an AS(G4S)5 linker) (heavy): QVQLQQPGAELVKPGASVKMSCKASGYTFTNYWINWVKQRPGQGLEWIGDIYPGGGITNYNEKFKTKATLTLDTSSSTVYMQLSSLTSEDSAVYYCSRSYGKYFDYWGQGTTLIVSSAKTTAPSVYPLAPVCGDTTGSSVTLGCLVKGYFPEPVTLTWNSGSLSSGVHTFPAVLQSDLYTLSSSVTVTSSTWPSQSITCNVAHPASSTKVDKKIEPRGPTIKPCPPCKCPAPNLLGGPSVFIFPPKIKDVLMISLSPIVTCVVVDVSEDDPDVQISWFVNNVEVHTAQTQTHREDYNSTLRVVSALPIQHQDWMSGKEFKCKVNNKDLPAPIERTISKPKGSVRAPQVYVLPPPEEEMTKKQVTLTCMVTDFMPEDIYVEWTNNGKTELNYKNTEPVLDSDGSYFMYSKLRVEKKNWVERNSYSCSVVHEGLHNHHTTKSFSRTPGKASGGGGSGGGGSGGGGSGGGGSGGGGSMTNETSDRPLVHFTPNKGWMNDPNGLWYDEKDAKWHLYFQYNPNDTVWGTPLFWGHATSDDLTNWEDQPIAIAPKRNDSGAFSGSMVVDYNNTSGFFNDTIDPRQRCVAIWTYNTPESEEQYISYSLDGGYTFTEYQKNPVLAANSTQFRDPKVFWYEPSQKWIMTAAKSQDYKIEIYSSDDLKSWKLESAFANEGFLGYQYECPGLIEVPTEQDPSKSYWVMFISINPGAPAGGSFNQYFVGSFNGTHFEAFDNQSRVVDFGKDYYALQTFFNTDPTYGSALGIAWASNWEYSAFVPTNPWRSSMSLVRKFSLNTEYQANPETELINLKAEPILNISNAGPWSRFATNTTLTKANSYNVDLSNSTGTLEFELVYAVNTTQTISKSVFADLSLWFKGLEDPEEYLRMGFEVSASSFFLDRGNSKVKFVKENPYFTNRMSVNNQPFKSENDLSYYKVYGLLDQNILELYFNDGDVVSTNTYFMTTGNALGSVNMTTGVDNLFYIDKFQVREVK
Chain of Ab+Inv LC15 (HP6017 with invertase fused to the C-terminus of the light chain by a (G4S)3 linker) (heavy): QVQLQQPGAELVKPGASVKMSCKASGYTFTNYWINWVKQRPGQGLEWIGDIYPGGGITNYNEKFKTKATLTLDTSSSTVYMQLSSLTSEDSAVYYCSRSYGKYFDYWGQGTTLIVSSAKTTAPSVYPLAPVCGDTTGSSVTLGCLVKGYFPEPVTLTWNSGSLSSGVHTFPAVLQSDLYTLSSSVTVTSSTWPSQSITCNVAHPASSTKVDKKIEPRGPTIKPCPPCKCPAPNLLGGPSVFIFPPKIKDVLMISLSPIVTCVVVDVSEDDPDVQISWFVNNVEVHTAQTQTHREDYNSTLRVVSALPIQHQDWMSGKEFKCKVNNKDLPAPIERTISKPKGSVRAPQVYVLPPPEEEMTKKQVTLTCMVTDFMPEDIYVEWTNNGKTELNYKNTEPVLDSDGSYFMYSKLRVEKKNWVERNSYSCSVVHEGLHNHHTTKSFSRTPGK
Chain of Ab+Inv LC15 (HP6017 with invertase fused to the C-terminus of the light chain by a (G4S)3 linker) (light): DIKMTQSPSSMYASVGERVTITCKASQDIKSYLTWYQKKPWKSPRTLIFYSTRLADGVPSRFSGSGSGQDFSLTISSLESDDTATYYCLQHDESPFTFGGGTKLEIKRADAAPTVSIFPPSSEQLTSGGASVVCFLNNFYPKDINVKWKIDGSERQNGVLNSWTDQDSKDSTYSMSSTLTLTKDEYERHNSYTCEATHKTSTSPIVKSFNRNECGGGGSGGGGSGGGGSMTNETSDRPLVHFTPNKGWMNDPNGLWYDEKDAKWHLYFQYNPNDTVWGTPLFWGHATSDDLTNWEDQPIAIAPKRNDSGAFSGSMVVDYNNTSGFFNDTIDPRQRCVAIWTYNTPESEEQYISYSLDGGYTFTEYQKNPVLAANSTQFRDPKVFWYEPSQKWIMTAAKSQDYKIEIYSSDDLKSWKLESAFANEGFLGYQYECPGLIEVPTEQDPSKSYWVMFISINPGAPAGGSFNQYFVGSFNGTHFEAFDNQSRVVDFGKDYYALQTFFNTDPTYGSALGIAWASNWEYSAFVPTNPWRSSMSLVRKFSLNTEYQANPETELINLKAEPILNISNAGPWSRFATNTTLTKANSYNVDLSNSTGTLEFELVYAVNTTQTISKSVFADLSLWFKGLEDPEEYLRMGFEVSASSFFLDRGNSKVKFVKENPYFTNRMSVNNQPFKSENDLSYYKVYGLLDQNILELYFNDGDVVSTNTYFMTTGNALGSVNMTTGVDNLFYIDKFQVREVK
Chain of Ab+Inv LC25 (HP6017 with invertase fused to the C-terminus of the light chain by a (G4S)5 linker) (light): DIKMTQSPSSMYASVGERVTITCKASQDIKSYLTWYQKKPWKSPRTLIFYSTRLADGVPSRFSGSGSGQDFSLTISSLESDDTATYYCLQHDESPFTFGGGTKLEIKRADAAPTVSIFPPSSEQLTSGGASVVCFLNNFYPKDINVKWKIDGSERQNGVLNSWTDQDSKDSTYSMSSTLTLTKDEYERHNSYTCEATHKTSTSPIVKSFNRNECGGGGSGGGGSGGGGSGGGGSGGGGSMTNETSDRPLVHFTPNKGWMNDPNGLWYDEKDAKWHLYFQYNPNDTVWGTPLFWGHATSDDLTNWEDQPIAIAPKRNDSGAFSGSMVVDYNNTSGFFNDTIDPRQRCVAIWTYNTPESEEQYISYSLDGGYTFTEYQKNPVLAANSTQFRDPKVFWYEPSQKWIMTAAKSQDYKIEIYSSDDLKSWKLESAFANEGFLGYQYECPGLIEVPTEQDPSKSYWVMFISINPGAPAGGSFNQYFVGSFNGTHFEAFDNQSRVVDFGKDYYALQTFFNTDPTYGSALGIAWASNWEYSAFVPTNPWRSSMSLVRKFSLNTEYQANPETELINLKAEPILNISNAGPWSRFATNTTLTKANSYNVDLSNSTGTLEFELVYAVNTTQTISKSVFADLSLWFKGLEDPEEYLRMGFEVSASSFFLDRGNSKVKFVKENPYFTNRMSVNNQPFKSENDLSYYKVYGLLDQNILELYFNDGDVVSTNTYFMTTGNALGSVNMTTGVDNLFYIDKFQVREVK

Row | Substance | EC50 (read off the curve) [1] [nM] | pKd [2] | koff [2] [s⁻¹] | kon [2] [M⁻¹ s⁻¹] | pKd [3]
1 | Ab+Inv HC17 (HP6017 with invertase fused to the C-terminus of the heavy chain by an AS(G4S)3 linker) | 20 | > 12.00 | < 1e-07 | 430000 | 7.68
2 | Ab+Inv HC27 (HP6017 with invertase fused to the C-terminus of the heavy chain by an AS(G4S)5 linker) | 30 | > 12.00 | < 1e-07 | 450000 | 7.60
3 | Ab+Inv LC15 (HP6017 with invertase fused to the C-terminus of the light chain by a (G4S)3 linker) | 20 | > 12.00 | < 1e-07 | 1.46e+06 | 7.80
4 | Ab+Inv LC25 (HP6017 with invertase fused to the C-terminus of the light chain by a (G4S)5 linker) | – | > 12.00 | < 1e-07 | 1.61e+06 | 7.77
5 | recombinant antibody HP6017 (anti-human IgG, mouse IgG2a kappa) | 20 | > 12.00 | < 1e-07 | 490000 | 7.74

Source: patent US20250155449A1
